± gives the standard deviation of the averaged measurements.
B1: library; a variant is named by its letters at N, in order (parent)
chain: GCUGUCACCGGUGCUUGGUACGUUAUAUUCAGCCGGUCUGAUGAGUCUNNNNNNAGACGAAACAGC

Key:
(6R,S)-folinic acid [1] = variants of: B1; experiment: normalized RNA/DNA level without ligand (relative to sTRSVctl = 100) (log10 (% of sTRSVctl)); HEK293T overexpressing SLC46A1; higher = less ribozyme self-cleavage, higher mRNA level; conditions: without (6R,S)-folinic acid; ligand present: no
How it was run: (§1)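 For each 6-well well, 4 µg of library plasmid encoding mCherry-linked ribozyme switches, or eGFP-linked ones in some ligand experiments, was transfected into HEK293T. Any ligand was added 1 h before transfection, and RNA was extracted with EDTA 72 h after it, then reverse-transcribed, amplified, barcoded and sequenced. RNA level was obtained by dividing RNA reads by DNA reads, normalizing to a spiked-in non-cleaving sequence or to the top sequences, then scaling and log-transforming. The top set was 25 sequences, scaling was ×100 with log10, and ≥100 DNA reads were required.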

(6R,S)-folinic acid [2] = variants of: B1; experiment: normalized RNA/DNA level with ligand (relative to sTRSVctl = 100) (log10 (% of sTRSVctl)); HEK293T overexpressing SLC46A1; ligand concentration (+) RNA-Seq: 6 mM; higher = less ribozyme self-cleavage, higher mRNA level; conditions: with (6R,S)-folinic acid; ligand present: yes
How it was run: as §1

Row | Variant | normalized RNA/DNA level without ligand (log10) ((6R,S)-folinic acid [1]) | normalized RNA/DNA level with ligand (log10) ((6R,S)-folinic acid [2])
1 | CCCUCC | 2.07 ± 0.015 | 2.006 ± 0.014
2 | CCCUCG | 2.04 ± 0.025 | 1.997 ± 0.014
3 | CCCUCU | 2.1 ± 0.026 | 2.09 ± 0.057
4 | ACGGGG | 1.997 ± 0.018 | 2.065 ± 0.02
5 | ACGGGC | 2.097 ± 0.0034 | 2.09 ± 0.031
6 | ACGCAA | 1.988 ± 0.011 | 2.01 ± 0.031
7 | ACGCAC | 2.024 ± 0.016 | 2.03 ± 0.027
8 | ACGCAG | 1.934 ± 0.018 | 2.01 ± 0.027
9 | ACGCAU | 1.987 ± 0.012 | 2.01 ± 0.014
10 | CCCGGA | 2.073 ± 0.016 | 2.03 ± 0.061
11 | CCCGGG | 2.019 ± 0.0077 | 1.987 ± 0.0062
12 | CCCGGC | 2.08 ± 0.037 | 2.02 ± 0.065
13 | CCCUUG | 2.069 ± 0.0099 | 2.091 ± 0.017
14 | CCCUUA | 2.065 ± 0.0096 | 2.08 ± 0.064
15 | CCCUUU | 2.06 ± 0.024 | 2.06 ± 0.044
16 | GCGACC | 2.029 ± 0.0059 | 2.07 ± 0.037
17 | GCGACU | 2.051 ± 0.0076 | 2.06 ± 0.04
18 | GCGACA | 2.024 ± 0.015 | 2.05 ± 0.03
19 | GCGACG | 1.989 ± 0.017 | 2.02 ± 0.045
20 | UCCGUU | 2.049 ± 0.0025 | 2.05 ± 0.068
21 | UCCGUA | 1.96 ± 0.029 | 2.004 ± 0.0049
22 | UCCGUC | 2.1142 ± 0.002 | 2.0759 ± 0.0012
23 | GCCUAG | 1.98 ± 0.023 | 2.05 ± 0.032

Row | Variant | normalized RNA/DNA level without ligand (log10) ((6R,S)-folinic acid [1]) | normalized RNA/DNA level with ligand (log10) ((6R,S)-folinic acid [2])
24 | GCCUAU | 2.027 ± 0.018 | 2.065 ± 0.02
25 | GCCUAA | 2.006 ± 0.019 | 2.022 ± 0.012
26 | GCCUAC | 2.056 ± 0.0034 | 2.086 ± 0.0065
27 | UCCGGC | 2.08 ± 0.024 | 2.024 ± 0.018
28 | UCCGGA | 1.99 ± 0.038 | 2.02 ± 0.063
29 | UCCGGU | 2.032 ± 0.019 | 2.02 ± 0.052
30 | CCGCGC | 2.067 ± 0.012 | 2.05 ± 0.068
31 | CCGCGU | 2.05 ± 0.026 | 2.054 ± 0.015
32 | CCGCGG | 2.031 ± 0.0025 | 2.0168 ± 0.0019
33 | CCGCGA | 2.06 ± 0.024 | 2.06 ± 0.034
34 | ACGCUG | 2.015 ± 0.0048 | 2.057 ± 0.015
35 | ACGCUC | 2.053 ± 0.015 | 2.05 ± 0.036
36 | ACGCUA | 2.013 ± 0.018 | 2.03 ± 0.06
37 | UCGAUC | 2.06 ± 0.025 | 2.03 ± 0.026
38 | UCGAUU | 2.02 ± 0.03 | 2.04 ± 0.053
39 | GCGCUG | 2.11 ± 0.022 | 2.1 ± 0.024
40 | GCGCUU | 2.053 ± 0.018 | 2.048 ± 0.015
41 | GCGCUC | 2.05 ± 0.049 | 2.01 ± 0.043
42 | CCGGCC | 2.094 ± 0.013 | 2.03 ± 0.013
43 | CCGGCG | 2.05 ± 0.025 | 2.05 ± 0.038
44 | CCGGCU | 2.08 ± 0.029 | 2.051 ± 0.013
45 | CCGGCA | 2.108 ± 0.021 | 2.049 ± 0.016
46 | ACGCGC | 1.997 ± 0.0046 | 2.01 ± 0.059

Row | Variant | normalized RNA/DNA level without ligand (log10) ((6R,S)-folinic acid [1]) | normalized RNA/DNA level with ligand (log10) ((6R,S)-folinic acid [2])
47 | ACGCGU | 2.022 ± 0.0046 | 2.02 ± 0.018
48 | ACGCGA | 1.986 ± 0.011 | 2.042 ± 0.0061
49 | ACGCGG | 1.965 ± 0.004 | 2.03 ± 0.066
50 | UCGCGA | 2.0026 ± 0.0006 | 2.02 ± 0.068
51 | UCGCGC | 2.046 ± 0.014 | 2.03 ± 0.03
52 | UCGCGG | 2.067 ± 0.0045 | 2.084 ± 0.02
53 | UCGCGU | 2.033 ± 0.0037 | 2.04 ± 0.032
54 | ACCGUC | 2.1 ± 0.03 | 2.07 ± 0.037
55 | ACCGUA | 1.969 ± 0.0072 | 2.01 ± 0.048
56 | ACCGUG | 1.92 ± 0.02 | 2.007 ± 0.015
57 | GCGGCG | 2.07 ± 0.023 | 2.1 ± 0.061
58 | GCGGCU | 2.0832 ± 0.0008 | 2.05 ± 0.031
59 | GCGGCC | 2.072 ± 0.011 | 2.077 ± 0.02
60 | GCGGCA | 2.071 ± 0.0038 | 2.07 ± 0.048
61 | ACGACU | 1.997 ± 0.0037 | 2.006 ± 0.017
62 | ACGAUA | 1.971 ± 0.0039 | 2.02 ± 0.036
63 | ACGAUU | 2.0259 ± 0.00039 | 2.03 ± 0.026
64 | ACGAUG | 1.925 ± 0.016 | 2.03 ± 0.031
65 | CCGACA | 2.02 ± 0.029 | 2.04 ± 0.035
66 | CCGACG | 2.033 ± 0.013 | 2.0354 ± 0.0001
67 | CCGACC | 2.063 ± 0.0099 | 2.04 ± 0.062
68 | CCGACU | 2.062 ± 0.0038 | 2.01 ± 0.027
69 | CCGCAA | 1.986 ± 0.018 | 2 ± 0.042

Row | Variant | normalized RNA/DNA level without ligand (log10) ((6R,S)-folinic acid [1]) | normalized RNA/DNA level with ligand (log10) ((6R,S)-folinic acid [2])
70 | CCGCAC | 1.997 ± 0.0034 | 1.99 ± 0.029
71 | CCGCAU | 2 ± 0.0024 | 2.017 ± 0.018
72 | CCGCAG | 1.97 ± 0.004 | 1.99 ± 0.066
73 | UCGAAC | 2.027 ± 0.01 | 2.006 ± 0.0085
74 | UCGAAA | 1.927 ± 0.0063 | 1.979 ± 0.0054
75 | UCGCCA | 2.027 ± 0.0078 | 2.03 ± 0.023
76 | UCGCCU | 2.08 ± 0.043 | 2.082 ± 0.016
77 | UCGCCC | 2.05 ± 0.039 | 2.04 ± 0.033
78 | UCGCCG | 2.016 ± 0.0047 | 2.05 ± 0.032
79 | GCGAUC | 2.039 ± 0.014 | 2.003 ± 0.015
80 | GCGAUA | 1.999 ± 0.0087 | 2 ± 0.011
81 | GCGAUU | 2.032 ± 0.016 | 2.04 ± 0.048
82 | UCGGGC | 2.06 ± 0.021 | 2.03 ± 0.055
83 | UCGGGG | 1.86 ± 0.027 | 1.99 ± 0.039
84 | UCGGGU | 1.9958 ± 0.001 | 2.03 ± 0.038
85 | UCGGGA | 1.937 ± 0.012 | 2.03 ± 0.056
86 | GCCGUC | 2.08 ± 0.031 | 2.081 ± 0.0053
87 | GCCGUG | 1.994 ± 0.012 | 2.033 ± 0.018
88 | GCCGUU | 2.067 ± 0.017 | 2.04 ± 0.006
89 | GCCGUA | 2.002 ± 0.0022 | 2.02 ± 0.05
90 | UCGGCA | 2.03 ± 0.029 | 2.04 ± 0.034
91 | UCGGCG | 1.997 ± 0.011 | 2.05 ± 0.046
92 | CCGGGA | 2.039 ± 0.0033 | 2.02 ± 0.054

Row | Variant | normalized RNA/DNA level without ligand (log10) ((6R,S)-folinic acid [1]) | normalized RNA/DNA level with ligand (log10) ((6R,S)-folinic acid [2])
93 | CCGGGU | 2.07 ± 0.036 | 2.05 ± 0.04
94 | CCGGGG | 1.985 ± 0.01 | 2.01 ± 0.049
95 | CCGGGC | 2.102 ± 0.01 | 2.073 ± 0.0025
96 | CCGGAU | 2.017 ± 0.0056 | 2.05 ± 0.059
97 | CCGGAC | 2.05 ± 0.0016 | 2.042 ± 0.016
98 | CCGGAA | 2.005 ± 0.0036 | 2.01 ± 0.052
99 | CCGGAG | 1.931 ± 0.0037 | 2.024 ± 0.011
100 | CCGAGA | 1.988 ± 0.01 | 2.011 ± 0.0034
101 | CCGAGG | 2.011 ± 0.006 | 2.01 ± 0.028
102 | CCGAGU | 2.029 ± 0.014 | 2.03 ± 0.032
103 | GCCUCA | 2.041 ± 0.02 | 2.05 ± 0.044
104 | GCCUCG | 2.034 ± 0.016 | 2.04 ± 0.046
105 | GCCUCU | 2.0468 ± 0.0011 | 2.07 ± 0.027
106 | GCCUCC | 2.068 ± 0.0082 | 2.05 ± 0.033
107 | GCCUUG | 1.994 ± 0.0032 | 2.03 ± 0.033
108 | GCCUUU | 2.04 ± 0.032 | 2.05 ± 0.044
109 | GCCUUC | 2.05 ± 0.042 | 2.062 ± 0.012
110 | UCGAGC | 2.022 ± 0.017 | 2.026 ± 0.011
111 | UCGAGA | 2.006 ± 0.0024 | 2.07 ± 0.049
112 | UCGAGG | 1.938 ± 0.017 | 2 ± 0.025
113 | ACGGAG | 1.839 ± 0.0062 | 2.029 ± 0.014
114 | ACGGAA | 1.965 ± 0.0049 | 2.024 ± 0.0076
115 | ACGGAC | 2.018 ± 0.015 | 2.01 ± 0.03

From the supplement of paper PMC6757056
